Test results taken from patent US20200262877A1, “ION CHANNEL-BINDING PEPTIDES AND METHODS OF USE THEREOF” (priority 2017, published 2020).

Assays:
NR2A = biological target: T1, NR2A (Homo sapiens, UniProt Q12879); assay: Ion channel panel (IonWorks Barracuda): NR2A; format: cell-based; settings: 100% = no change, <100% = inhibition
T1 construct: host or cells: HEK293 or CHO
In short: (§1)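 Transfected HEK293 or CHO cells were exposed for at least 5 min to peptides at 200 nM and 20 μM final, tested in duplicate, in HEPES-buffered physiological saline. Activation was taken as peptide-plus-agonist current over control current ×100, and inhibition as 1 minus that ratio ×100. Each channel's control was its own reference compound.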

Kir2.1 = biological target: T2, Kir2.1 (Homo sapiens, UniProt P63252); assay: Ion channel panel (IonWorks Barracuda): Kir2.1; format: cell-based; settings: 100% = no change, <100% = inhibition
T2 construct: host or cells: HEK293 or CHO
In short: as §1

NR2B = biological target: T3, NR2B (Homo sapiens, UniProt Q13224); assay: Ion channel panel (IonWorks Barracuda): NR2B; format: cell-based; settings: 100% = no change, <100% = inhibition
T3 construct: host or cells: HEK293 or CHO
In short: as §1

TRPA1 = biological target: T4, TRPA1 (Homo sapiens, UniProt O75762); assay: Ion channel panel (IonWorks Barracuda): TRPA1; format: cell-based; settings: 100% = no change, <100% = inhibition
T4 construct: host or cells: HEK293 or CHO
In short: as §1

Nav1.5 = Nav1.5 (Homo sapiens, UniProt Q14524); assay: in vitro; settings: 100% = no change; for Activity of Nav1.5 with peptide, expressed as a percentage of the reference compound: peptide at 0.2 μM; for Activity of Nav1.5 with peptide (percentage of the reference compound): peptide at 20 μM
Nav1.5, sequence (Q14524 whole entry): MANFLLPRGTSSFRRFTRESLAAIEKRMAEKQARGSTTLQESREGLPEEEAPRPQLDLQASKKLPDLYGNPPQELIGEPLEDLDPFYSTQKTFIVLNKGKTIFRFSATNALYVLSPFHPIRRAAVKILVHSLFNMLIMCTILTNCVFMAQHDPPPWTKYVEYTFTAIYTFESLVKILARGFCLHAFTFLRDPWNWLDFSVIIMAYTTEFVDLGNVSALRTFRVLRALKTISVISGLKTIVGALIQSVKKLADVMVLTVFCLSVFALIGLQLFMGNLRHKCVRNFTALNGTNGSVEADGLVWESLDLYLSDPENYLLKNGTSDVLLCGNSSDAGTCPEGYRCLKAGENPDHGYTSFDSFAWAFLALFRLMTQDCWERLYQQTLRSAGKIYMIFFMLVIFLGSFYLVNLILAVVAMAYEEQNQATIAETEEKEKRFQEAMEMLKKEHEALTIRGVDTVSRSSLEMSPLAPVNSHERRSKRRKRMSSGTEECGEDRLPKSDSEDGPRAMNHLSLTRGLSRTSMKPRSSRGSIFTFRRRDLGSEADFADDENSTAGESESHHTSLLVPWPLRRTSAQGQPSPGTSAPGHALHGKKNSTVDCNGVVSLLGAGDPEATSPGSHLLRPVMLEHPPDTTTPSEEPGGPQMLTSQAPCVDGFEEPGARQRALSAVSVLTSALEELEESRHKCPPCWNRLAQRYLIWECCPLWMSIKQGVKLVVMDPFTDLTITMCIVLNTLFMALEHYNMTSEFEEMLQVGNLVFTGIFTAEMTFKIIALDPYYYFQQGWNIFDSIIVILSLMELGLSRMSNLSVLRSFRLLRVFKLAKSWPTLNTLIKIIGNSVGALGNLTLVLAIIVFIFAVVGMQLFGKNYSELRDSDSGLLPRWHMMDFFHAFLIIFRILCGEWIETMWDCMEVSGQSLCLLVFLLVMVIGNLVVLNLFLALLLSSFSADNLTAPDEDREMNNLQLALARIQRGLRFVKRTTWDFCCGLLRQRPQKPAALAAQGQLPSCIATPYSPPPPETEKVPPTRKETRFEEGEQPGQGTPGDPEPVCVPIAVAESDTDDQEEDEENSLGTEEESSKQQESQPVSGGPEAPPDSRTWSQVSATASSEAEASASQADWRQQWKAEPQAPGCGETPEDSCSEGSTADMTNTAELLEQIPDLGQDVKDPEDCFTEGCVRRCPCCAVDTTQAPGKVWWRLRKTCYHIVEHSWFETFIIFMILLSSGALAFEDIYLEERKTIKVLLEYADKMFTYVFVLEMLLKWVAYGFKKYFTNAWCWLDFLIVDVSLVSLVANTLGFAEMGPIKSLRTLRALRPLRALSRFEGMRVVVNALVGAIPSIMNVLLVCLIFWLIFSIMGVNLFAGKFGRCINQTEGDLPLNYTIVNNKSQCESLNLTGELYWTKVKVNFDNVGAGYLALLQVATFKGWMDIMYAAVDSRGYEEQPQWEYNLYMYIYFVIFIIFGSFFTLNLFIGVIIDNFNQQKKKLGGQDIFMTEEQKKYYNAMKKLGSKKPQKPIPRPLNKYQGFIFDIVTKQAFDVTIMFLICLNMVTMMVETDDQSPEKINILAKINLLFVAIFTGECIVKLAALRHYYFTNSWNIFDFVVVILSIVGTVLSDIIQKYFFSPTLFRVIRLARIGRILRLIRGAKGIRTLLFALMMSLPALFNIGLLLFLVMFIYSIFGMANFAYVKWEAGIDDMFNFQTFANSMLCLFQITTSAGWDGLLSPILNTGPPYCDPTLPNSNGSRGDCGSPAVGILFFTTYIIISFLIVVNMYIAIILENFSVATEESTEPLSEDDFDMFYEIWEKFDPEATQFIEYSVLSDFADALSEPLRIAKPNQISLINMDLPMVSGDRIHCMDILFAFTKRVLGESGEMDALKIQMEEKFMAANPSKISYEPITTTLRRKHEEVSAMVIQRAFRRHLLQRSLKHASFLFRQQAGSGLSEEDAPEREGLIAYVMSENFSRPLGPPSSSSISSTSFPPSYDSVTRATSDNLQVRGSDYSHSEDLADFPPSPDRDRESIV
In short: as §1

hERG = hERG (Homo sapiens, UniProt Q12809); assay: in vitro; settings: 100% = no change, <100% = inhibition
In short: as §1

Kv1.1 = biological target: T5, Kv1.1 (Homo sapiens, UniProt Q09470); assay: cell-based; format: cell-based; settings: 100% = no change, <100% = inhibition
T5 construct: host or cells: HEK293 or CHO
In short: as §1

Kv1.3 = biological target: T6, Kv1.3 (Homo sapiens, UniProt P22001); assay: cell-based; format: cell-based; settings: 100% = no change, <100% = inhibition
T6 construct: host or cells: HEK293 or CHO
In short: as §1

Kv1.2 = biological target: T7, Kv1.2 (Homo sapiens, UniProt P16389); assay: cell-based; format: cell-based; settings: 100% = no change, <100% = inhibition
T7 construct: host or cells: HEK293 or CHO
In short: as §1

TRPV1 = biological target: T8, TRPV1 (Homo sapiens, UniProt Q8NER1); assay: Ion channel panel (IonWorks Barracuda): TRPV1; format: cell-based; settings: 100% = no change, <100% = inhibition
T8 construct: host or cells: HEK293 or CHO
In short: as §1

GABA = assay: Ion channel panel (IonWorks Barracuda): GABA; format: cell-based; settings: 100% = no change, <100% = inhibition
In short: as §1

5HT3a = biological target: T9, 5HT3a (Homo sapiens, UniProt P46098); assay: Ion channel panel (IonWorks Barracuda): 5HT3a; format: cell-based
T9 construct: host or cells: HEK293 or CHO
T9 sequence (P46098 whole entry, looked up): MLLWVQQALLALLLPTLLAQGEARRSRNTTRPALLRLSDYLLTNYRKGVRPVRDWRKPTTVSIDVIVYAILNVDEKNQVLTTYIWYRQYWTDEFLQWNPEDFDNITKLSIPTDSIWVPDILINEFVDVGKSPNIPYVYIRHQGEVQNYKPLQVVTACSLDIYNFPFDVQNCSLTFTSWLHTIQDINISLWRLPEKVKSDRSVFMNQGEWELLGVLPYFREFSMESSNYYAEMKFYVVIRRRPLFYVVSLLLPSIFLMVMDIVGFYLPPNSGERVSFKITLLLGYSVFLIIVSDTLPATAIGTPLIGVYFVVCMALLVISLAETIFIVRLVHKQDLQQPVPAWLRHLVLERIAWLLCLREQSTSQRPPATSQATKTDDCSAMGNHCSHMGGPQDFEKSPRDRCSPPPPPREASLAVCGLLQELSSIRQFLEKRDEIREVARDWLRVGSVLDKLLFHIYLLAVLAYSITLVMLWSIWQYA
In short: as §1

α4β2 = biological target: T10, α4β2 (Homo sapiens, UniProt P17787+P43681); assay: Ion channel panel (IonWorks Barracuda): α4β2; format: cell-based; settings: 100% = no change, <100% = inhibition
T10 construct: host or cells: HEK293 or CHO
In short: as §1

Cav2.1 = biological target: T11, Cav2.1 (Homo sapiens, UniProt O00555); assay: cell-based; settings: 100% = no change, <100% = inhibition
T11 construct: host or cells: HEK293 or CHO
In short: as §1

Kv2.1 = biological target: T12, Kv2.1 (Homo sapiens, UniProt Q14721); assay: cell-based; settings: 100% = no change, <100% = inhibition
T12 construct: host or cells: HEK293 or CHO
In short: as §1

Cav2.2 = biological target: T13, Cav2.2 (Homo sapiens, UniProt Q00975); assay: cell-based; settings: 100% = no change, <100% = inhibition
T13 construct: host or cells: HEK293 or CHO
In short: as §1

α3β4 = biological target: T14, α3β4 (Homo sapiens, UniProt P30926+P32297); assay: Ion channel panel (IonWorks Barracuda): α3β4; format: cell-based; settings: 100% = no change, <100% = inhibition
T14 construct: host or cells: HEK293 or CHO
T14 sequence (P30926 22-498): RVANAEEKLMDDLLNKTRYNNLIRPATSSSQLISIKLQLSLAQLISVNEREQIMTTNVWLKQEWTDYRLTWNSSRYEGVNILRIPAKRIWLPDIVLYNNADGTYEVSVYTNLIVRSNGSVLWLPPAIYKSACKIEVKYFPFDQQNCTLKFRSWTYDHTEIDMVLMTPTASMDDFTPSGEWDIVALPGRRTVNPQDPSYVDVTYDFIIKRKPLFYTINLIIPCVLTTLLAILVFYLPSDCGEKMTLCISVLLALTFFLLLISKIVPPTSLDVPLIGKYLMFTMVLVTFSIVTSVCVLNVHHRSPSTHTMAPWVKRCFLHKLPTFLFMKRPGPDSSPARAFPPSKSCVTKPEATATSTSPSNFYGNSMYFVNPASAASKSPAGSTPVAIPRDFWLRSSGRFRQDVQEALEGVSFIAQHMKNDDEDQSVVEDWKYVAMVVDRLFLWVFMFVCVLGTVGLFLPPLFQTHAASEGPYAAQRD
T14 sequence (P32297 32-505): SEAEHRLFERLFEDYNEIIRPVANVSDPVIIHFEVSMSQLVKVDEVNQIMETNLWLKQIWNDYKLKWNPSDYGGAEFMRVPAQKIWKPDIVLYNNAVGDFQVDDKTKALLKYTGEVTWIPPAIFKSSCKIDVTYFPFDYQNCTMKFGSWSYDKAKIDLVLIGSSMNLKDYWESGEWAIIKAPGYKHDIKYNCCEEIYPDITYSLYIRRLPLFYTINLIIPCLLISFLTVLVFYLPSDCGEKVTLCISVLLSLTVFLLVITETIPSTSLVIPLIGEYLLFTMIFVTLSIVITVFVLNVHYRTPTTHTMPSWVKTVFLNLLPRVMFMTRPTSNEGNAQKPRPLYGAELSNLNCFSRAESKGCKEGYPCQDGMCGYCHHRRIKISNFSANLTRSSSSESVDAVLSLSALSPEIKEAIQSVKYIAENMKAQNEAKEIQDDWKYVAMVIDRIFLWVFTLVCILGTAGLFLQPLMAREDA
In short: as §1

Nav1.7 = biological target: T15, Nav1.7 (Homo sapiens, UniProt Q15858); assay: cell-based; format: cell-based; settings: 100% = no change; for Activity of Nav1.7 with peptide, expressed as a percentage of the reference compound: peptide at 0.2 μM; for Activity of Nav1.7 with peptide (percentage of the reference compound): peptide at 20 μM
T15 construct: host or cells: HEK293 or CHO
T15 sequence (Q15858 whole entry): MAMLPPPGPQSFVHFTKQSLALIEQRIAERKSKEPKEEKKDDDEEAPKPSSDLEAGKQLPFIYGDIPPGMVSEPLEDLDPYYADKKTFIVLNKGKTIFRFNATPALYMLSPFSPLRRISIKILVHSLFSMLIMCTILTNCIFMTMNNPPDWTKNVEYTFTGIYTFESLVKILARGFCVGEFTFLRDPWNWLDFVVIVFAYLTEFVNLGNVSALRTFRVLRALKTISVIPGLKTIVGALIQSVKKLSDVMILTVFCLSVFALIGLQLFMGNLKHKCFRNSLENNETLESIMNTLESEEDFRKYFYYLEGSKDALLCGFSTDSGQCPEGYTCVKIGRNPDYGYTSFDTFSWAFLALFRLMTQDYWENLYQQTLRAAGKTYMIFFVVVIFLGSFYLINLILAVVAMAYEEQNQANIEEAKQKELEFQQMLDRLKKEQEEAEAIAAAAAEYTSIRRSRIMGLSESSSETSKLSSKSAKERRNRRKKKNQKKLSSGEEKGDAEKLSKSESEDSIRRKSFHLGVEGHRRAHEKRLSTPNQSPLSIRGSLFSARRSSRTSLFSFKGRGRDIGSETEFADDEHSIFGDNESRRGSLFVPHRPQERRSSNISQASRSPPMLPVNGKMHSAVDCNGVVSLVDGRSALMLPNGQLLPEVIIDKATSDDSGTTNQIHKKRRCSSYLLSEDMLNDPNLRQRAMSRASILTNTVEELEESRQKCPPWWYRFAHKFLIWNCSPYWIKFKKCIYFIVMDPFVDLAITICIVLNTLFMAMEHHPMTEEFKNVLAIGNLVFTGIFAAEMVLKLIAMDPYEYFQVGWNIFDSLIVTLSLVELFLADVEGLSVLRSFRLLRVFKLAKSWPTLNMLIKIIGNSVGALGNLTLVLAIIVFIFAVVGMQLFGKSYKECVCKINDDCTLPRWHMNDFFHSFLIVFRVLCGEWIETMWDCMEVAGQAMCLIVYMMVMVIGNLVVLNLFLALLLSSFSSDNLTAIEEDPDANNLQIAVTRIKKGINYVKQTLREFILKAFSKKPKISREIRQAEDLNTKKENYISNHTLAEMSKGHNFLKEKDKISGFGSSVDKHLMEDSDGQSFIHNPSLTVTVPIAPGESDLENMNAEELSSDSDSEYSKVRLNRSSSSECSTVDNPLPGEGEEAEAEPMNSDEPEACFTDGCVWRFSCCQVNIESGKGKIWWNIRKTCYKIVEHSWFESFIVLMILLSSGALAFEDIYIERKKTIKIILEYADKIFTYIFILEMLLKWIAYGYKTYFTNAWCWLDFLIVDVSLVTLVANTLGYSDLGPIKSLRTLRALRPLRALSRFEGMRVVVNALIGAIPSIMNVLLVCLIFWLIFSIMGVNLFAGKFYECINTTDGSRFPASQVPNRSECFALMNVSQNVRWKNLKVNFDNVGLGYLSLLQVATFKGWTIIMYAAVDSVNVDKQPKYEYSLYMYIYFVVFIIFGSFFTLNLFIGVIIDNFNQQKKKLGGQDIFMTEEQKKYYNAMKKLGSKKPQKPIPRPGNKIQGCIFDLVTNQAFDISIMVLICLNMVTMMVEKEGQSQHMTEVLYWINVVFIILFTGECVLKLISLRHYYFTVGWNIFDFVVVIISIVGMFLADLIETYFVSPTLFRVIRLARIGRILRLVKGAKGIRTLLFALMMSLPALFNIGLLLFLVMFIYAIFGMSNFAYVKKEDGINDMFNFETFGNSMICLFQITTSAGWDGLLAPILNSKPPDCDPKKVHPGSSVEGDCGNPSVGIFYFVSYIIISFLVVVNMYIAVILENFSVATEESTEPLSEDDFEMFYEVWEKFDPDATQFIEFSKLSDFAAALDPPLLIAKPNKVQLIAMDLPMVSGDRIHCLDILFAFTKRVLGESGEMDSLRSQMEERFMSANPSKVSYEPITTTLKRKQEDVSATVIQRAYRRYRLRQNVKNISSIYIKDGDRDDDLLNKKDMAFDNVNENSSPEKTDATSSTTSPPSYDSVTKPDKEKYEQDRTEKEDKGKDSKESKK

[1] = first of two Nav1.5 columns (probably TP1)
[2] = second of two Nav1.5 columns (probably TP2)
[3] = first of two Nav1.7 columns (probably TP1)
[4] = second of two Nav1.7 columns (probably TP2)

How did the “Activity of NR2A with peptide, expressed as a percentage of the reference compound” value (NR2A; peptide at 0.2 μM) turn out when “10 (GSQVQTNVKCQGGSCASVCRREIGVAAGKCINGKCVCYRN) [compound 10]” was run?
The value was 84%.

What about the “Activity of NR2A with peptide (percentage of the reference compound)” value (NR2A; peptide at 20 μM) of the same substance?
The value was 65%.

What about the “Activity of Kir2.1 with peptide, expressed as a percentage of the reference compound” value (Kir2.1; peptide at 0.2 μM) of the same substance?
The value was 100%.

And the “Activity of Kir2.1 with peptide (percentage of the reference compound)” value (Kir2.1; peptide at 20 μM)?
The value was 92%.

And the “Activity of NR2B with peptide, expressed as a percentage of the reference compound” value (NR2B; peptide at 0.2 μM)?
Its value is 82%.

And the “Activity of NR2B with peptide (percentage of the reference compound)” value (NR2B; peptide at 20 μM)?
Its value is 98%.

And the “Activity of TRPA1 with peptide, expressed as a percentage of the reference compound” value (TRPA1; peptide at 0.2 μM)?
The value was 108%.

What about the “Activity of TRPA1 with peptide (percentage of the reference compound)” value (TRPA1; peptide at 20 μM) of the same substance?
Its value is 107%.

What about the “Activity of Nav1.5 with peptide, expressed as a percentage of the reference compound” value (Nav1.5; [1]) of the same substance?
Its value is 93%.

And the “Activity of Nav1.5 with peptide, expressed as a percentage of the reference compound” value (Nav1.5; [2])?
The value was 90%.

And the “Activity of Nav1.5 with peptide (percentage of the reference compound)” value (Nav1.5; [1])?
Its value is 114%.

What about the “Activity of Nav1.5 with peptide (percentage of the reference compound)” value (Nav1.5; [2]) of the same substance?
The value was 116%.

What about the “Activity of hERG with peptide, expressed as a percentage of the reference compound” value (hERG; peptide at 0.2 μM) of the same substance?
The value was 97%.

And the “Activity of hERG with peptide (percentage of the reference compound)” value (hERG; peptide at 20 μM)?
The value was 80%.

And the “Activity of Kv1.1 with peptide, expressed as a percentage of the reference compound” value (Kv1.1; peptide at 0.2 μM)?
The value was 117%.

What about the “Activity of Kv1.1 with peptide (percentage of the reference compound)” value (Kv1.1; peptide at 20 μM) of the same substance?
The value was 84%.

What about the “Activity of Kv1.3 with peptide, expressed as a percentage of the reference compound” value (Kv1.3; peptide at 0.2 μM) of the same substance?
Its value is 101%.

What about the “Activity of Kv1.3 with peptide (percentage of the reference compound)” value (Kv1.3; peptide at 20 μM) of the same substance?
The value was 93%.

What about the “Activity of Kv1.2 with peptide, expressed as a percentage of the reference compound” value (Kv1.2; peptide at 0.2 μM) of the same substance?
Its value is 135%.

What about the “Activity of Kv1.2 with peptide (percentage of the reference compound)” value (Kv1.2; peptide at 20 μM) of the same substance?
Its value is 77%.

What about the “Activity of TRPV1 with peptide, expressed as a percentage of the reference compound” value (TRPV1; peptide at 0.2 μM) of the same substance?
The value was 111%.

And the “Activity of TRPV1 with peptide (percentage of the reference compound)” value (TRPV1; peptide at 20 μM)?
Its value is 98%.

And the “Activity of GABA with peptide, expressed as a percentage of the reference compound” value (GABA; peptide at 0.2 μM)?
Its value is 129%.

And the “Activity of GABA with peptide (percentage of the reference compound)” value (GABA; peptide at 20 μM)?
Its value is 111%.

And the “Activity of 5HT3a with peptide (percentage of the reference compound)” value (5HT3a)?
Its value is 104%.

And the “Activity of 5HT3a with peptide, expressed as a percentage of the reference compound” value (5HT3a)?
The value was 90%.

What about the “Activity of a4b2 with peptide, expressed as a percentage of the reference compound” value (α4β2; peptide at 0.2 μM) of the same substance?
Its value is 96%.

And the “Activity of a4b2 with peptide (percentage of the reference compound)” value (α4β2; peptide at 20 μM)?
The value was 94%.

What about the “Activity of Cav2.1 with peptide, expressed as a percentage of the reference compound” value (Cav2.1; peptide at 0.2 μM) of the same substance?
The value was 104%.

What about the “Activity of Cav2.1 with peptide (percentage of the reference compound)” value (Cav2.1; peptide at 20 μM) of the same substance?
The value was 96%.

What about the “Activity of Kv2.1 with peptide, expressed as a percentage of the reference compound” value (Kv2.1; peptide at 0.2 μM) of the same substance?
Its value is 88%.

What about the “Activity of Kv2.1 with peptide (percentage of the reference compound)” value (Kv2.1; peptide at 20 μM) of the same substance?
The value was 109%.

And the “Activity of Cav2.2 with peptide, expressed as a percentage of the reference compound” value (Cav2.2; peptide at 0.2 μM)?
The value was 98%.

What about the “Activity of Cav2.2 with peptide (percentage of the reference compound)” value (Cav2.2; peptide at 20 μM) of the same substance?
The value was 94%.

What about the “Activity of a3b4 with peptide, expressed as a percentage of the reference compound” value (α3β4; peptide at 0.2 μM) of the same substance?
Its value is 97%.

And the “Activity of a3b4 with peptide (percentage of the reference compound)” value (α3β4; peptide at 20 μM)?
The value was 104%.

What about the “Activity of Nav1.7 with peptide, expressed as a percentage of the reference compound” value (Nav1.7; [3]) of the same substance?
Its value is 105%.

What about the “Activity of Nav1.7 with peptide, expressed as a percentage of the reference compound” value (Nav1.7; [4]) of the same substance?
Its value is 98%.

And the “Activity of Nav1.7 with peptide (percentage of the reference compound)” value (Nav1.7; [3])?
The value was 106%.

What about the “Activity of Nav1.7 with peptide (percentage of the reference compound)” value (Nav1.7; [4]) of the same substance?
The value was 90%.
